This note sets out measurements from paper doi:10.1101/2025.06.05.658000 (2025).

Read-outs that look alike come from different tables or passages of the source. No end group written: not given here. *: point of attachment. Biotin = O=C1N[C@H]2[C@H](CS[C@H]2CCCCC(=O)*)N1; Ahx = NCCCCCC(=O)O Bounds are passed on as bounds.

Test in all cases: ELISA
(In an ELISA, binding on a coated surface is turned into a signal by an enzyme label.)

Assay [1] has as its target HLA-DR (DRA1*01:01 / DRB1*03:01), soluble knob-into-hole Fc heterodimer (human).
Assay [2] concerns the target HLA-DR (DRA1*01:01 / DRB1*04:06), soluble knob-into-hole Fc heterodimer (human).
Assay [3] deals with HLA-DR (DRA1*01:01 / DRB1*01:02), soluble knob-into-hole Fc heterodimer (human).
Assay [4] addresses HLA-DR (DRA1*01:01 / DRB1*11:04), soluble knob-into-hole Fc heterodimer (human).
The target of assay [5] is HLA-DR (DRA1*01:01 / DRB1*13:02), soluble knob-into-hole Fc heterodimer (human).
The target of assay [6] is HLA-DR (DRA1*01:01 / DRB1*14:01), soluble knob-into-hole Fc heterodimer (human).
The target in assay [7] is HLA-DR (DRA1*01:01 / DRB1*14:54), soluble knob-into-hole Fc heterodimer (human).
The target of assay [8] is HLA-DR (DRA1*01:01 / DRB1*16:02), soluble knob-into-hole Fc heterodimer (human).
In assay [9] the target is HLA-DR (DRA1*01:01 / DRB1*11:01), soluble knob-into-hole Fc heterodimer (human).
Assay [10] has as its target HLA-DR (DRA1*01:01 / DRB1*09:01), soluble knob-into-hole Fc heterodimer (human).
Assay [11] has as its target HLA-DR (DRA1*01:01 / DRB1*15:03), soluble knob-into-hole Fc heterodimer (human).
In assay [12] the target is HLA-DR (DRA1*01:01 / DRB1*12:02), soluble knob-into-hole Fc heterodimer (human).
Assay [13] addresses HLA-DR (DRA1*01:01 / DRB1*04:07), soluble knob-into-hole Fc heterodimer (human).
Assay [14] has as its target HLA-DR (DRA1*01:01 / DRB1*13:01), soluble knob-into-hole Fc heterodimer (human).
Assay [15] concerns the target T1, HLA-DR (DRA1*01:01 / DRB1*12:01), soluble knob-into-hole Fc heterodimer (human).
The target in assay [16] is HLA-DR (DRA1*01:01 / DRB1*04:03), soluble knob-into-hole Fc heterodimer (human).
In assay [17] the target is HLA-DR (DRA1*01:01 / DRB1*04:04), soluble knob-into-hole Fc heterodimer (human).
The target of assay [18] is T1, HLA-DR (DRA1*01:01 / DRB1*12:01), …. This is another data set of the same source.
The target in assay [19] is T2, HLA-DR (DRA1*01:01 / DRB1*07:01), soluble knob-into-hole Fc heterodimer (human).
In assay [20] the target is HLA-DR (DRA1*01:01 / DRB1*15:01), soluble knob-into-hole Fc heterodimer (human).
Assay [21] deals with HLA-DR (DRA1*01:01 / DRB1*01:01), soluble knob-into-hole Fc heterodimer (human).
Assay [22] concerns the target HLA-DR (DRA1*01:01 / DRB1*04:01), soluble knob-into-hole Fc heterodimer (human).
The target of assay [23] is HLA-DR (DRA1*01:01 / DRB1*04:05), soluble knob-into-hole Fc heterodimer (human).
For assay [24], the target named is HLA-DR (DRA1*01:01 / DRB1*15:02), soluble knob-into-hole Fc heterodimer (human).
For assay [25], the target named is HLA-DR (DRA1*01:01 / DRB1*10:01), soluble knob-into-hole Fc heterodimer (human).
Assay [26] deals with T2, HLA-DR (DRA1*01:01 / DRB1*07:01), …. The source holds these as a separate data set.

B1: biotin-labeled human Class II-associated Invariant Chain Peptide (Bio-CLIP) (peptide)
peptide: KPVSKMRMATPLLMQALPM
modifications: also: biotin-labeled
As to B1, the Kd (commonly a measure of binding affinity in units of concentration) in [1] is 15.1 nM; in assay [2] it was 2.63 nM; in assay [3], 1.78 nM; in assay [4] it was 4.54 nM; in assay [5], 4.13 µM; in [6] it was 9.17 nM. The Kd turned out to be 3.35 nM in [7]; 8.67 nM in assay [8]; 12 nM in assay [9]; 0.576 nM in [10]; 5.31 nM in assay [11]; 1.27 nM in assay [12]. Moreover, the Kd in [13] amounted to 2.76 nM; in assay [14] it was 315 nM; in assay [15], 22.9 nM; in assay [16], 2.32 nM; in assay [17] it was 2.7 nM.

B2: SARS-CoV-2 RBD peptide RBD419-433 (peptide)
peptide: ADYNYKLPDDFTGCV
Take B2: the dissociation constant (Kd) in assay [18] and in assay [19] was more than 10000 nM throughout.

B3: SARS-CoV-2 RBD peptide RBD323-337 (peptide)
peptide: TESIVRFPNITNLCP
B3: the values for the Kd in assay [18] and in assay [19] were 4930 nM and 435 nM, respectively.

B4: biotin-labeled human Class II-associated Invariant Chain Peptide (Bio-CLIP) (peptide)
peptide: {Biotin-Ahx}-KPVSKMRMATPLLMQALPM
On to B4, for which the dissociation constant Kd was 2.13 nM in assay [20]; 1.83 nM in [21]; 2.35 nM in assay [22]; 14.9 nM in assay [23]; 8.75 nM in assay [24]; 1.27 nM in [25]. The molecule further came in with a Kd in assay [26] of 4.09 nM.

B5: SARS-CoV-2 RBD peptide RBD447-461, wildtype strain (peptide)
peptide: GNYNYLYRLFRKSNL
Consider B5, for which the Kd amounted to 229 nM in assay [18] and 163 nM in [19].

B6: SARS-CoV-2 RBD peptide RBD483-497 (peptide)
peptide: VEGFNCYFPLQSYGF
With B6, the Kd in assay [18] turned out to be 439 nM; in assay [19] it was 173 nM.

B7: SARS-CoV-2 RBD peptide RBD511-525 (peptide)
peptide: VVLSFELLHAPATVC
Regarding B7, the figures for the Kd in [18] and in assay [19] were 631 nM and 263 nM, respectively.
